Reference: US11319366B2, “Antibody facilitating programmed necrosis of cells and application thereof” (SHANGHAI JW INFLINHIX CO., LTD., priority 2015, dated 2022)
“Also recorded” adds a separate entry of the source.

How the values were obtained:
L929 cells = assay: Apoptosis and necrosis assay (live/dead staining, active caspase-3, flow cytometry) in L929 cells; format: cell-based, mouse
Procedure: (§1) The cells were stained with live/dead cell staining kits (Invitrogen, Paisley, UK) instructed by the manufacturer's manual and fixed using cytofix/cytoperm fixation/permeabilization solution kits (BD Pharmingen, Oxford, UK). This was followed by intracellular staining with FITC-conjugated anti-caspase-3 antibody (Cell Signaling Technology, Danvers, Mass., USA). Cells were acquired on a CyAn flow cytometer (Beckman Coulter, Fullerton, Calif.) and data were analyzed using Flowjo (Tree Star Inc. Ashland, Oreg.).

TNF [1] = target: T1, TNF (Homo sapiens, UniProt P01375); assay: ELISA screening of monoclonal antibodies for binding to TNF; settings: among 33 monoclonal antibodies
T1 construct: purchased Immunotools (Germany)
Procedure: A second antibody conjugated with HRP was used to detect the reaction. For the inhibition assay, TNFR1 or synovial fluids were added together with monoclonal antibodies.

TNF [2] = target: T1, TNF; assay: Identification of binding epitope of the monoclonal antibody
[3] = tested on: TNF receptors on L929 cells; assay: L929 cells immunofluorescence (confocal) microscopy of TNF/antibody binding to TNF receptors; format: cell-based, mouse
Procedure: The cells were fixed with 4% paraformaldehyde (in PBS) for 10 min, blocked in a phosphate-buffer containing 0.5% BSA and 0.1% cold water fish-gelatin for 15 min and subsequently incubated with rabbit anti-TNFR1 antibodies (Abcam) for 1 hour. The cells were extensively washed in PBS and then incubated with the relevant secondary antibodies, which were conjugated with Alexa Fluor 488 or Alexa Fluor 568 21 (Invitrogen). PBS-washed specimens were then mounted in Gelvatol/DABCO (Sigma-Aldrich). DNA was counterstained with DAPI (Sigma-Aldrich). All samples were analyzed by fluorescent microscopy using a Nikon Eclipse 80i at 60×. Images were acquired with NIS-Elements AR3.0 software using a Hamamatsu camera.

[4] = tested on: C28I2 cells (chondrocytes); assay: Apoptosis assay (active caspase-3) in C28I2 cells; format: cell-based, human; settings: C28I2 cells stimulated by TNF
Procedure: as §1

T1 sequence (P01375 77-233 limits assumed): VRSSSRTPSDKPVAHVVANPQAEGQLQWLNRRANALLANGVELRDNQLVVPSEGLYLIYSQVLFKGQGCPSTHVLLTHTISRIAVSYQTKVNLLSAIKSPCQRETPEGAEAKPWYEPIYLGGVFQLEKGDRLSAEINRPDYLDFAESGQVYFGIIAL

## CN1C(=O)C(Cc2c[nH]c3ccccc23)NC1=S (centres unmarked) [Nec-1, Necrostatin-1, reference compound]
L929 cells; L929 cells, added into 244-12+TNF
  effect on necrosis caused by 244-12+TNF: cell necrosis was conversed into apoptosis; also recorded: cell necrosis transformed into apoptosis

B1: 244-12: anti-TNF monoclonal antibody specifically binding QLVVPSE; light chain SEQ ID NO: 10, heavy chain SEQ ID NO: 21 (antibody, listed as Homo sapiens)
heavy: QIQLVQSGPELKKPGETVKISCKASGYTFTNYGMNWVKQAPGKGLKWMGWINTYTGEPTYADDFKGRFAFSLETSANTAYLQINNLRNEGMATYFCARHYRYAWFPYWGQGTLVTVSAAKTTPPSVYPLAPGCGDTTGSSVTLGCLVKGYFPESVTVTWNSGSLSSSVHTFPALLQSGLYTMSSSVTVPSSTWPSQTVTCSVAHPASSTTVDKKLEPSGPISTINPCPPCKECHKCPAPNLEGGPSVFIFPPNIKDVLMISLTPKVTCVVVDVSEDDPDVQISWFVNNVEVHTAQTQTHREDYNSTIRVVSTLPIQHQDWMSGKEFKCKVNNKDLPSPIERTISKIKGLVRAPQVYILPPPAEQLSRKDVSLTCLVVGFNPGDISVEWASNGHTEENYKDTAPVLDSDGSYFIYSKLNMKTSKWEKTDSFSCNVRHEGLKNYYLKKTISRSPGK
light: DIQMTQSPASLSASVGETVTITCRASGNIHIYLAWYQQKQGKSPQLLVYNAKTLADGVPSRFSGSGSGTQYSLKINSLQPEDFGSYYCQHFWSIPWTFGGGTKLEIKRADAAPTVSIFPPSSEQLTSGGASVVCFLNNFYPKDINVKWKIDGSERQNGVLNSWTDQDSKDSTYSMSSTLTLTKDEYERHNSYTCEATHKTSTSPIVKSFNRNEC
TNF [1]
  binding to TNF by ELISA: bound TNF the strongest
TNF [2]
  binding epitope: QLVVPSE
[3]; confocal microscopy, in the presence of TNF
  effect on binding of TNF to TNF receptors: does not affect the binding of TNF to cell surface receptors
[3]; in the absence of TNF
  direct binding of antibody to cell surface: can not directly bind to cell surface
L929 cells; L929 cells stimulated by TNF
  TNF-induced apoptosis (active caspase-3 expression): apoptosis was inhibited; also recorded: blocks TNF-induced apoptosis
L929 cells; L929 cells, TNF alone or antibody added with TNF
  cell fate (apoptosis / survival / necrosis) of L929 cells: necrosis of L929 cells occurred; also recorded: necrosis of L929 cell
[4]
  TNF-induced apoptosis (active caspase-3 expression): blocks TNF-induced apoptosis
